For one substance, β-galactosidase (NFAT-LacZ) reporter activity of B3Z cells expressing DNGR-1 and SYK, stimulated with DNGR-1L, dose-dependent; EC50 results are on record in article PMC12669754.

The assay has as its target murine DNGR-1 (CLEC9A) expressed in B3Z NFAT reporter cells with SYK (mouse) (UniProt Q8BRU4).
Chain of UniProt Q8BRU4 (Q8BRU4 whole entry): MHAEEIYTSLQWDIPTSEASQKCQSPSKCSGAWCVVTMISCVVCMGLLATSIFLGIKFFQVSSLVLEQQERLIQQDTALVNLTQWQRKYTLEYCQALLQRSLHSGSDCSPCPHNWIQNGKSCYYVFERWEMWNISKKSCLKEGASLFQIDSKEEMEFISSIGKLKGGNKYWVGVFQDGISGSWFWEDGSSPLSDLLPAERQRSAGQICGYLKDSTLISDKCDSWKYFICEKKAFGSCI

As for “DNGR-1 ligand (DNGR-1L), F-actin-myosin II complexes (from UniProt P68135 1-377)”, the β-galactosidase (NFAT-LacZ) reporter activity of B3Z cells expressing DNGR-1 and SYK, stimulated with DNGR-1L, dose-dependent; EC50 is 5 nM.
